We go through 1 substance from paper PMC10638403.

This experiment has as its target full-length E. coli ClpX (E. coli) (UniProt P0A6H1).

FITC-casein came in with a rate of ClpP degradation of FITC-casein (50 µM, 30 °C) supported by full-length ∆NPS ClpX against wild-type ClpX (against ~10-fold for ∆NPS ClpX^∆N over ClpX^∆N) of 2 fold.
